Results published in publication PMC6823927 (Bioconjugate chemistry, 2018).

Biological target: extracellular domain of HER2 (Homo sapiens, UniProt P04626)
Assay: SPR

B1: parental Fab (meditope-enabled trastuzumab Fab, Ala175) (Fab, V domains shown)
VH: not shown
VL: DIQMTQSPILLSASVGDRVTITCRASQDVNTAVAWYQQRTNGSPRLLIYSASFLYSGVPSRFSGSRSGTDFTLTISSLQPEDEADYYCQQHYTTPPTFGAGTKVEIK
**Q.** Does B1 bind?
**A.** Result: binds

B2: 175Cys-Fab (meditope-enabled trastuzumab Fab with Ala175 of the heavy chain changed to cysteine) (Fab, V domains shown)
VH: not shown
VL: B1 VL
**Q.** Does B2 bind?
**A.** Result: binds
